Source: paper PMC9654219, “Molecular Mechanism of Sirtuin 1 Modulation by the AROS Protein” (International Journal of Molecular Sciences, 2022)

T1: AROS 1–89 (N-terminus of AROS) (human, UniProt Q86WX3 1-89)
T1 construct: human AROS (RPS19BP1), residues 1-89; Preparation is told for 'human AROS constructs' in general
T1 sequence (looked up): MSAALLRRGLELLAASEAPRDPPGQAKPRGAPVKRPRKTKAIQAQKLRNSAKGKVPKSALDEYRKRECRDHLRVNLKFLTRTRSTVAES

T2: full-length Sirt1 (human, UniProt Q96EB6 1-747)
T2 sequence (looked up): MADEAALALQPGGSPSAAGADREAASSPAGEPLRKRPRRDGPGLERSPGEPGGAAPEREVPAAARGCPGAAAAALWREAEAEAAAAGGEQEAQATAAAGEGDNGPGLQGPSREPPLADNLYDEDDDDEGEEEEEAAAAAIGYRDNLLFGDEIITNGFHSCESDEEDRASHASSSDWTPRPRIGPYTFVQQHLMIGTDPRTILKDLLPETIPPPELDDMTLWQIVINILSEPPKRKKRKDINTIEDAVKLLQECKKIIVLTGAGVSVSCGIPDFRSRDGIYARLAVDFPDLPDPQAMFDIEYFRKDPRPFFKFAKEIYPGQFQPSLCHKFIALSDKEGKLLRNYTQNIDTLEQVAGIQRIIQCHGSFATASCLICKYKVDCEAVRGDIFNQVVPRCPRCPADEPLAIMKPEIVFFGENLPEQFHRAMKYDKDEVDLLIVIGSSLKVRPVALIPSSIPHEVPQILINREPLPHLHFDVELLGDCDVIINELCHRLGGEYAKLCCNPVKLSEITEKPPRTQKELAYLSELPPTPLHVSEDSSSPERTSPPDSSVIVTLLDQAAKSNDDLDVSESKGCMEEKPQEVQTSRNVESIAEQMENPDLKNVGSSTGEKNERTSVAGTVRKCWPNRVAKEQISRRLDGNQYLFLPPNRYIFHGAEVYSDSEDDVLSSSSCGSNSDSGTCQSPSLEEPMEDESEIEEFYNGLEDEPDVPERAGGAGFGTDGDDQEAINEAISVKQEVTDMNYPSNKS

T3: Sirt5 residues 34–302 (human, UniProt Q9NXA8 34-302)
T3 construct: human Sirt5, residues 34-302 (pET151/D-TOPO); source: E. coli BL21 (DE3) CodonPlus, purified (Ni beads, TEV cleavage, S200 gel filtration)
T3 sequence (looked up): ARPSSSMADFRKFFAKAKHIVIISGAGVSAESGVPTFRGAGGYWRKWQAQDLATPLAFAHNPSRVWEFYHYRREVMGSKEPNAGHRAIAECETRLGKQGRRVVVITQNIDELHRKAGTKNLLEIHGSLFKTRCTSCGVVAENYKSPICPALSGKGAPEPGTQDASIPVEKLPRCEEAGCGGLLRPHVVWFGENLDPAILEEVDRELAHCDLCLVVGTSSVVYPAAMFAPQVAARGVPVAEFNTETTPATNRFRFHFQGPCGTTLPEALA

T4: Sirt3 residues 118–399 (human, UniProt Q9NTG7 118-399)
T4 construct: human Sirt3, residues 118-399 (pVFT3S); source: E. coli BL21 (DE3) CodonPlus, purified (Ni beads, TEV cleavage, ion exchange, S200 gel filtration)
T4 sequence (looked up): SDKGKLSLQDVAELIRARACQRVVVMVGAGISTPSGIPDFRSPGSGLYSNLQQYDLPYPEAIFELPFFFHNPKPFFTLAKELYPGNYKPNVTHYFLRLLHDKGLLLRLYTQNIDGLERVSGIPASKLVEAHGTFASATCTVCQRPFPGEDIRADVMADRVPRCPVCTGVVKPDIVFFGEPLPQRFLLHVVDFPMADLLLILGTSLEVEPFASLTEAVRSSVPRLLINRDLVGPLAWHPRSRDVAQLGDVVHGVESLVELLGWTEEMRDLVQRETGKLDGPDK

B1: mini-Sirt1ex687 (domain or fragment)
chain: GPYTFVQQHLMIGTDPRTILKDLLPETIPPPELDDMTLWQIVINILSEPPKRKKRKDINTIEDAVKLLQECKKIIVLTGAGVSVSCGIPDFRSRDGIYARLAVDFPDLPDPQAMFDIEYFRKDPRPFFKFAKEIYPGQFQPSLCHKFIALSDKEGKLLRNYTQNIDTLEQVAGIQRIIQCHGSFATASCLICKYKVDCEAVRGDIFNQVVPRCPRCPADEPLAIMKPEIVFFGENLPEQFHRAMKYDKDEVDLLIVIGSSLKVRPVALIPSSIPHEVPQILINREPLPHLHFDVELLGDCDVIINELCHRLGGEYAKLCCNPVGGGSGGGSQYLFLPPNRYIFHGAEVYSDSEDDVLSSSSCGSNSDSGTCQSPSLEE
B2: active regulator of Sirt1 (AROS), full length, residues 1-136 (natural protein, human, UniProt Q86WX3 1-136, looked up)
chain: MSAALLRRGLELLAASEAPRDPPGQAKPRGAPVKRPRKTKAIQAQKLRNSAKGKVPKSALDEYRKRECRDHLRVNLKFLTRTRSTVAESVSQQILRQNRGRKACDRPVAKTKKKKAEGTVFTEEDFQKFQQEYFGS
notes: human AROS (RPS19BP1), residues 1-136, with N-terminal hexahistidine tag and TEV protease cleavage site (modified pET19b); No tag removal is described; 15N-labelled for the NMR titrations; In MST either AROS or Sirt1 carried Cy5 on lysines; also called AROS 1–136; full-length AROS; not shown: His6, N-terminal, kept
B3: Sirt1 144–230 (N-terminus and SBD) (domain or fragment, human, UniProt Q96EB6 144-230, looked up)
chain: DNLLFGDEIITNGFHSCESDEEDRASHASSSDWTPRPRIGPYTFVQQHLMIGTDPRTILKDLLPETIPPPELDDMTLWQIVINILSE
notes: also called Sirt1-SBD
B4: AROS peptide 62-71 (peptide)
peptide: EYRKRECRDH
notes: human AROS (RPS19BP1), residues 62-71; also called AROS62-71; AROS 62–71; source: synthetic peptide, bought: GL Biochem
B5: AROS peptide 80-91 (peptide)
peptide: TRTRSTVAESVS
notes: human AROS (RPS19BP1), residues 80-91; also called AROS80-91; AROS 80–91; source: synthetic peptide, bought: GL Biochem
B6: AROS peptide 96-109 (peptide)
peptide: RQNRGRKACDRPVA
notes: human AROS (RPS19BP1), residues 96-109; also called AROS96-109; AROS 96–109; source: synthetic peptide, bought: GL Biochem

Columns and labels:
[1] = molecular target: T1, AROS 1–89 (N-terminus of AROS); experiment: MST; either AROS or Sirt1 labelled with Cy5-NHS ester (40–120 nM labelled protein); 50 mM Na2HPO4/NaH2PO4 pH 7.0, 250 mM NaCl, 2 mg/mL BSA, 20 °C; Monolith NT.115; conditions: both partners purified
[2] = molecular target: B2; experiment: as above; conditions: both partners purified
full-length Sirt1 = molecular target: T2, full-length Sirt1; experiment: cell-based or functional assay
Sirt5 residues 34–302 = molecular target: T3, Sirt5 residues 34–302; experiment: cross-linking; 2 mM DSSO, 50 µM of each protein, 50 mM NaHPO4 pH 7, 250 mM NaCl, RT; SDS-PAGE; bands analysed by LC-ESI-MS/MS; conditions: both partners purified
Sirt3 residues 118–399 = molecular target: T4, Sirt3 residues 118–399; experiment: crystal structure; 10 mg/mL Sirt3 pre-incubated with 1 mM AROS peptide 62–71 and 1 mM AROS peptide 96–109; 12% PEG 8.000, 0.1 M HEPES pH 7.5, 0.2 M NaCl, 20 °C; 3.27 Å; conditions: both partners purified
mini-Sirt1ex687 = molecular target: B1; experiment: MST; either AROS or Sirt1 labelled with Cy5-NHS ester (40–120 nM labelled protein); 50 mM Na2HPO4/NaH2PO4 pH 7.0, 250 mM NaCl, 2 mg/mL BSA, 20 °C; Monolith NT.115; conditions: both partners purified
[3] = molecular target: B3; experiment: as above; conditions: both partners purified

| Kd [1] [µM] | Kd (mini-Sirt1ex687) [µM] | Kd [3] [µM] | further results | Binder |
| --- | --- | --- | --- | --- |
| 65 ± 9 | – | – | Kd [2]: 1.3 ± 0.2 µM | B1 |
| – | – | – | increase of KM for the acetylated FdL substrate peptide with 40 µM AROS (FdL activity assay, substrate titration) (full-length Sirt1): ~3 fold; binding result (Sirt5 residues 34–302): binds | B2 |
| 209 ± 67 | – | – | – | B3 |
| – | 86 ± 16 | 166 ± 24 | binding result (Sirt3 residues 118–399): binds | B4 |
| – | 721 ± 310 | 579 ± 102 | – | B5 |
| – | 151 ± 31 | – | – | B6 |
